Read-outs that look alike come from different tables or passages of the source.
T1: P2-AA-12HAA-D
T1 chain: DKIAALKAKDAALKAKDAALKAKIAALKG

T2: P2-AA-12HAA-E
T2 chain: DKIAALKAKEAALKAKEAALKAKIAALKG

T3: P2-AA-12HAA-H
T3 chain: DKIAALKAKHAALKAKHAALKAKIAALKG

T4: P2-AA-12HAA-I
T4 chain: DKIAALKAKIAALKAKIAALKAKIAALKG

T5: P2-AA-12HAA-K
T5 chain: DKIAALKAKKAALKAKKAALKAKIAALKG

T6: P2-AA-12HAA-L
T6 chain: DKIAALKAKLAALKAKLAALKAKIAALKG

T7: P2-AA-12HAA-R
T7 chain: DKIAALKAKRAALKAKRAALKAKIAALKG

T8: P2-AA-12HAA-S
T8 chain: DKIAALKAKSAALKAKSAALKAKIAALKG

T9: P2-AA-12HAA-T
T9 chain: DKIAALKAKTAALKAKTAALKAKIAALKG

T10: P2-AA-12HAA-V
T10 chain: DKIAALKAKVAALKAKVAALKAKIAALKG

T11: P2-AA-12HAA-Y
T11 chain: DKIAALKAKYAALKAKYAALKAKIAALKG

T12: P2-AA
T12 chain: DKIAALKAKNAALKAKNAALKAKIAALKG

T13: P9bHq
T13 chain: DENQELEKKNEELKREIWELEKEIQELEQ

T14: P2-AA-12HGe-W
T14 chain: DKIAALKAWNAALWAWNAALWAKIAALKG

T15: O5
T15 chain: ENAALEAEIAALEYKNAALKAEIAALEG

T16: O6
T16 chain: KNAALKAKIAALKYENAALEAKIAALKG

T17: O7
T17 chain: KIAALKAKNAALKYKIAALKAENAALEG

T18: O8
T18 chain: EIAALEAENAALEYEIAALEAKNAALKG

T19: O9
T19 chain: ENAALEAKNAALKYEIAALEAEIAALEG


Legend:
P2-AA-12HAA-D = molecular target: T1, P2-AA-12HAA-D; experiment: two-hybrid library CCmax; details: mean of both orientations;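 further: natural log of median RNA to DNA barcode read ratio; higher means stronger binding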
P2-AA-12HAA-E = molecular target: T2, P2-AA-12HAA-E; experiment: two-hybrid library CCmax;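 further: natural log of median RNA to DNA barcode read ratio; higher means stronger binding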
P2-AA-12HAA-H = molecular target: T3, P2-AA-12HAA-H; experiment: two-hybrid library CCmax;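 further: natural log of median RNA to DNA barcode read ratio; higher means stronger binding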
P2-AA-12HAA-I = molecular target: T4, P2-AA-12HAA-I; experiment: two-hybrid library CCmax; details: mean of both orientations;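 further: natural log of median RNA to DNA barcode read ratio; higher means stronger binding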
P2-AA-12HAA-K = molecular target: T5, P2-AA-12HAA-K; experiment: two-hybrid library CCmax; details: mean of both orientations
P2-AA-12HAA-L = molecular target: T6, P2-AA-12HAA-L; experiment: two-hybrid library CCmax
P2-AA-12HAA-R = molecular target: T7, P2-AA-12HAA-R; experiment: two-hybrid library CCmax
P2-AA-12HAA-S = molecular target: T8, P2-AA-12HAA-S; experiment: two-hybrid library CCmax
P2-AA-12HAA-T = molecular target: T9, P2-AA-12HAA-T; experiment: two-hybrid library CCmax; details: mean of both orientations
P2-AA-12HAA-V = molecular target: T10, P2-AA-12HAA-V; experiment: two-hybrid library CCmax; details: mean of both orientations
P2-AA-12HAA-Y = molecular target: T11, P2-AA-12HAA-Y; experiment: two-hybrid library CCmax; details: mean of both orientations
P2-AA = molecular target: T12, P2-AA; experiment: two-hybrid library CCmax; details: mean of both orientations
P9bHq = molecular target: T13, P9bHq; experiment: two-hybrid library CCNG1
P2-AA-12HGe-W = molecular target: T14, P2-AA-12HGe-W; experiment: two-hybrid library CCmax
O5 = molecular target: T15, O5; experiment: two-hybrid library CC0; details: mean of both orientations
O6 = molecular target: T16, O6; experiment: two-hybrid library CC0; details: mean of both orientations
O7 = molecular target: T17, O7; experiment: two-hybrid library CC0; details: mean of both orientations
O8 = molecular target: T18, O8; experiment: two-hybrid library CC0; details: mean of both orientations
O9 = molecular target: T19, O9; experiment: two-hybrid library CC0; details: mean of both orientations

Binder	interaction score (P2-AA-12HAA-D)	interaction score (P2-AA-12HAA-H; mean of both orientations)	interaction score (P2-AA-12HAA-I)	interaction score (P2-AA-12HAA-K)	interaction score (P2-AA-12HAA-L; mean of both orientations)	interaction score (P2-AA-12HAA-R; mean of both orientations)	interaction score (P2-AA-12HAA-S; mean of both orientations)	interaction score (P2-AA-12HAA-T)	interaction score (P2-AA-12HAA-V)	interaction score (P2-AA-12HAA-Y)	interaction score (P2-AA)	interaction score (P2-AA-12HAA-E; mean of both orientations)	also measured
DENQELEKKNEELKREIWELEKEIQELEQ [P9bHq]													interaction score (P9bHq): -0.654
DEIAALEAELAALEAELAALEAEIAALEG [P1-AA-12HAA-L]	1.26	1.84	1.68	1.6	2.35	1.7		2.1	2.38	1.68	1.49	1.74	interaction score (P2-AA-12HAA-S): 1.59
DEIAALEAERAALEAERAALEAEIAALEG [P1-AA-12HAA-R]	-0.753	0.326	1.45	-0.626	1.95	-1.34	1.44	0.243	1.37	0.106	1.8	0.85	
DEIAALEAEDAALEAEDAALEAEIAALEG [P1-AA-12HAA-D]	-1.35	0.205	-0.345	0.46	-1.19	1.84	0.438	-1.11	-0.204	-1.44	-0.884	-1.33	interaction score (P2-AA-12HGe-W): -2.4
ENAALEAEIAALEYKNAALKAEIAALEG [O5]													interaction score (O5): -2.78; interaction score (O6): 1.41; interaction score (O7): -2.67; interaction score (O8): -2.47; interaction score (O9): -2.73
DEIAALEAEAAALEAEAAALEAEIAALEG [P1-AA-12HAA-A]	-0.675	2.14	1.82	1.48	1.84	0.883	1.55	1.66	1.9	2	1.79	0.947	
DEIAALEAEEAALEAEEAALEAEIAALEG [P1-AA-12HAA-E]	-1.42	1.59	1.5	1.62	1.82	1.71	0.789	0.375	1.49	-0.0466	1.91	-0.819	
DEIAALEAEIAALEAEIAALEAEIAALEG [P1-AA-12HAA-I]	1.29		2.05	1.78	2.28	2	2.16	1.75	1.79	1.87	1.8	1.58	interaction score (P2-AA-12HAA-H): 1.79
DEIAALEAEHAALEAEHAALEAEIAALEG [P1-AA-12HAA-H]	-1.24	-0.35	1.75	0.96	1.83	-0.0784	1.07	1.16	1.78	-0.416	1.85	0.0438	

Further lines, with some results ahead:

interaction score (P2-AA-12HAA-D)	interaction score (P2-AA-12HAA-H; mean of both orientations)	interaction score (P2-AA-12HAA-I)	interaction score (P2-AA-12HAA-K)	interaction score (P2-AA-12HAA-L; mean of both orientations)	interaction score (P2-AA-12HAA-R; mean of both orientations)	interaction score (P2-AA-12HAA-S; mean of both orientations)	interaction score (P2-AA-12HAA-T)	interaction score (P2-AA-12HAA-V)	interaction score (P2-AA-12HAA-Y)	interaction score (P2-AA)	interaction score (P2-AA-12HAA-E; mean of both orientations)	Binder	also measured
-0.93	1.67	1.8	1.89	2.1	1.4	1.85	1.76	1.72	2.02	1.97		DEIAALEAEYAALEAEYAALEAEIAALEG [P1-AA-12HAA-Y]	interaction score (P2-AA-12HAA-E): 1.74
1.1	1.25	1.82	1.35		1.69	1.44	1.86	2.21	1.8	2.1		DEIAALEAEVAALEAEVAALEAEIAALEG [P1-AA-12HAA-V]	interaction score (P2-AA-12HAA-E): 1.83; interaction score (P2-AA-12HAA-L): 1.78
-1.06	1.5	1.84	1.37	1.97		1.33	1.56	1.98	1.53	2.07	0.124	DEIAALEAETAALEAETAALEAEIAALEG [P1-AA-12HAA-T]	interaction score (P2-AA-12HAA-R): 1.79
-0.855	1.58	1.69	0.951	2.15	1.11	1.26	0.962	1.8	0.635	2.24		DEIAALEAESAALEAESAALEAEIAALEG [P1-AA-12HAA-S]	interaction score (P2-AA-12HAA-E): -0.4
